Source: US20230382970A1 (HANMI PHARM, published 2023)
Numbered stars: 1 amine (or outer) side, 2 acyl side, 3 side chain; on linkers, the order of the positions; unused ones are H or OH. Bridge positions count the residues as written; N and C are the ends. Square brackets hold non-standard residues; d marks the D form. Ends that are not written are not given here. HAY = 2-(4-hydroxyphenyl)acetic acid replacing N-terminal Tyr, O=C(Cc1ccc(O[*:3])cc1)[*:2]; Aib = CC(C)(N)C(=O)O

T1: human GIP receptor (human, UniProt P48546 22-466)
T1 sequence (looked up): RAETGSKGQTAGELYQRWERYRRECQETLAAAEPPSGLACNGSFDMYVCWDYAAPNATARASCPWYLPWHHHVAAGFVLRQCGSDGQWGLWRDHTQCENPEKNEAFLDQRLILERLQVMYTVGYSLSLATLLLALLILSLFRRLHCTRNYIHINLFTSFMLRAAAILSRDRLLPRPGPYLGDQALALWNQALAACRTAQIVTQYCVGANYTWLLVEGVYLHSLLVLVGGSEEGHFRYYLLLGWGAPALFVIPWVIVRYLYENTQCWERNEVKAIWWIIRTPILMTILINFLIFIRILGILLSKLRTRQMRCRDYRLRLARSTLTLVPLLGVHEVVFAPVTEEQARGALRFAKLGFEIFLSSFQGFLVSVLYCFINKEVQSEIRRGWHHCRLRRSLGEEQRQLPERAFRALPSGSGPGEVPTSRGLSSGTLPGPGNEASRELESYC


Molecular target: human GLP-1 receptor (human, UniProt P43220 24-463)
Assay: cell-based or functional assay

Binder	In vitro activity (%) compared to native-type peptide, vs human GLP-1 (cAMP EC50, human GLP-1 receptor-expressing CHO cells) [%]
Y[Aib]EGTFTSDYSKYLDEKAAKDFVQWLLDHHPSSGQPPPSC (bridge 16-20) [GLP-1/GIP dual agonist of SEQ ID NO: 5]	20.2
Y[Aib]EGTFTSDYSEYMEKEAVREFIAWLVKGGPSSGAPPPSC (bridge 12-16) [GLP-1/GIP dual agonist of SEQ ID NO: 1]	53.9
Y[Aib]EGTFTSDYSI[Aib]LDKIAQRAFVQWLIAGGPSSGAPPPSK [GLP-1/GIP dual agonist of SEQ ID NO: 16]	60
Y[Aib]EGTFTSDYSIQLDKIAQRAFVQWLIAGGPSSGAPPPSK [GLP-1/GIP dual agonist of SEQ ID NO: 18]	43.3
Y[Aib]EGTFTSDYSKYLDEIRAKDFVQWLLDHHPSSGQPPPSC (bridge 16-20) [GLP-1/GIP dual agonist of SEQ ID NO: 2]	3.3
Y[Aib]EGTFTSDYSRYLDERAAKDFVQWLLDHHPSSGQPPPSK (bridge 16-20) [GLP-1/GIP dual agonist of SEQ ID NO: 9]	141
Y[Aib]EGTFTSDYSI[Aib]LDKQAARAFVQWLIAGGPSSGAPPPSC [GLP-1/GIP dual agonist of SEQ ID NO: 34]	34.2
Y[Aib]EGTFTSDYSI[Aib]LDKIAAKAFVQWLIAGGPSSGAPPPSC [GLP-1/GIP dual agonist of SEQ ID NO: 21]	19.7
Y[Aib]EGTFTSDYSKYLDERAQKDFVQWLLDHHPSSGQPPPSC (bridge 16-20; also: ring type not given here) [GLP-1/GIP dual agonist of SEQ ID NO: 7]	18.3
Y[Aib]EGTFTSDYSIQLDKIAQKAFVQWLIAGGPSSGAPPPSC [GLP-1/GIP dual agonist of SEQ ID NO: 17]	19.8
Y[Aib]EGTFTSDYSIAMDAIAQQDFVNWLLAQKGKKNDWKHNITQC [GLP-1/GIP dual agonist of SEQ ID NO: 26]	0.3
Y[Aib]EGTFTSDYSI[Aib]LDKQAA[Aib]AFVQWLIAGGPSSGAPPPSC [GLP-1/GIP dual agonist of SEQ ID NO: 20]	31.5
Y[Aib]EGTFTSDYSKYLDEIAAKDFVQWLLDHHPSSGQPPPSC (bridge 16-20) [GLP-1/GIP dual agonist of SEQ ID NO: 3]	6.8
Y[Aib]EGTFTSDYSI[Aib]LDKQAA[Aib]EFVNWLL[Aib]GGPSSGAPPPSC [GLP-1/GIP dual agonist of SEQ ID NO: 29]	0.5
[HAY][Aib]EGTFTSDYSI[Aib]LDKIAQRAFVQWLIAGGPSSGAPPPSK [GLP-1/GIP dual agonist of SEQ ID NO: 32]	88.3

Molecular target: T1, human GIP receptor
Assay: cell-based or functional assay

Binder	In vitro activity (%) compared to native-type peptide, vs human GIP (cAMP EC50, human GIP receptor-expressing CHO cells) [%]
Y[Aib]EGTFTSDYSKYLDEKAAKDFVQWLLDHHPSSGQPPPSC (bridge 16-20) [GLP-1/GIP dual agonist of SEQ ID NO: 5]	48.2
Y[Aib]EGTFTSDYSEYMEKEAVREFIAWLVKGGPSSGAPPPSC (bridge 12-16) [GLP-1/GIP dual agonist of SEQ ID NO: 1]	27.5
Y[Aib]EGTFTSDYSI[Aib]LDKIAQRAFVQWLIAGGPSSGAPPPSK [GLP-1/GIP dual agonist of SEQ ID NO: 16]	72.3
Y[Aib]EGTFTSDYSIQLDKIAQRAFVQWLIAGGPSSGAPPPSK [GLP-1/GIP dual agonist of SEQ ID NO: 18]	15.9
Y[Aib]EGTFTSDYSKYLDEIRAKDFVQWLLDHHPSSGQPPPSC (bridge 16-20) [GLP-1/GIP dual agonist of SEQ ID NO: 2]	28.8
Y[Aib]EGTFTSDYSI[Aib]LDKQAARAFVQWLIAGGPSSGAPPPSC [GLP-1/GIP dual agonist of SEQ ID NO: 34]	63.4
Y[Aib]EGTFTSDYSI[Aib]LDKIAAKAFVQWLIAGGPSSGAPPPSC [GLP-1/GIP dual agonist of SEQ ID NO: 21]	23.2
Y[Aib]EGTFTSDYSKYLDERAQKDFVQWLLDHHPSSGQPPPSC (bridge 16-20; also: ring type not given here) [GLP-1/GIP dual agonist of SEQ ID NO: 7]	62.3
Y[Aib]EGTFTSDYSIQLDKIAQKAFVQWLIAGGPSSGAPPPSC [GLP-1/GIP dual agonist of SEQ ID NO: 17]	7.7
Y[Aib]EGTFTSDYSIAMDAIAQQDFVNWLLAQKGKKNDWKHNITQC [GLP-1/GIP dual agonist of SEQ ID NO: 26]	57.9
Y[Aib]EGTFTSDYSI[Aib]LDKQAA[Aib]AFVQWLIAGGPSSGAPPPSC [GLP-1/GIP dual agonist of SEQ ID NO: 20]	64.2
Y[Aib]EGTFTSDYSKYLDEIAAKDFVQWLLDHHPSSGQPPPSC (bridge 16-20) [GLP-1/GIP dual agonist of SEQ ID NO: 3]	28.7
Y[Aib]EGTFTSDYSI[Aib]LDKQAA[Aib]EFVNWLL[Aib]GGPSSGAPPPSC [GLP-1/GIP dual agonist of SEQ ID NO: 29]	96
[HAY][Aib]EGTFTSDYSI[Aib]LDKIAQRAFVQWLIAGGPSSGAPPPSK [GLP-1/GIP dual agonist of SEQ ID NO: 32]	20.1
